Literature values as cited in publication PMC8296985, “A Covalent Calmodulin Inhibitor as a Tool to Study Cellular Mechanisms of K-Ras-Driven Stemness” (Frontiers in Cell and Developmental Biology, 2021).

Key:
[1] = target: Calmodulin (Homo sapiens) (UniProt P0DP23); experiment: fluorescence polarization
[2] = target: Calmodulin C-terminal lobe (Homo sapiens) (UniProt P0DP23)
[3] = target: Calmodulin N-terminal lobe (Homo sapiens) (UniProt P0DP23)

Kd [1] [nM]	Kd [2] [nM]	Kd [3] [nM]	Substance
6	–	–	F-PMCA peptide (from UniProt P20020)
–	500	4000	K-Ras (from UniProt P01116)
